Patent publication US20120237528A1 (Janssen / Centocor, published 2012)

Legend:
[1] = target: T1, recombinant extracellular domain (ECD) of human TF, amino acid 1-219 of the mature chain, C-terminal His6-tag (human, UniProt P13726 33-251); test: Biacore
T1 construct: expressed in a mammalian system; used for ELISA and Biacore; biotinylated by NHS-ester for the Fab ELISA; also called His6-TF-ECD1-219; HumanTF1-219

[2] = target: Innovin, lyophilized recombinant human tissue factor combined with phospholipids (human, UniProt P13726 33-295, limits assumed); test: cell-based or functional assay; further: test concentration or dose not given here

Row | Binder | Kd [1] [nM] | koff [1] [s⁻¹] | kon [1] [M⁻¹ s⁻¹] | T½ Max (seconds), coagulation of human plasma [2] [s]
1 | M1583 (antibody, V domains shown, complete MAb; FR4 is its own entry; also called H177/L3) VH: EVQLVQSGAEVKKPGESLRISCKGSGYTFGPYWIEWVRQMPGKGLEWMGDIIPGSGWTNYSPSFQGHVTISADKSISTAYLQWSSLKASDTAMYYCARSGYYGNSGFAYWGQGTLVTVSS VL: DIVMTQTPLSLPVTPGEPASISCKSSQSLLSSGNQKNYLTWYLQKPGQSPQLLIYWASTRESGVPDRFSGSGSGTDFTLKISRVEAEDVGVYYCQNDYTYPLTFGQGTKLEIK | 0.42 | 0.0001 | 239000 | 189
2 | M1586 (antibody, V domains shown, complete MAb; FR4 is its own entry; also called H164/L3) VH: EVQLVQSGAEVKKPGESLRISCKGSGYTFPTYWIEWVRQMPGKGLEWMGDIIPGTGWTNYSPSFQGHVTISADKSISTAYLQWSSLKASDTAMYYCARSGYYGNSGFAYWGQGTLVTVSS VL: DIVMTQTPLSLPVTPGEPASISCKSSQSLLSSGNQKNYLTWYLQKPGQSPQLLIYWASTRESGVPDRFSGSGSGTDFTLKISRVEAEDVGVYYCQNDYTYPLTFGQGTKLEIK | 0.78 | 0.000143 | 184000 | 200
3 | M1591 (antibody, V domains shown, complete MAb; FR4 is its own entry; also called H122/L3) VH: EVQLVQSGAEVKKPGESLRISCKGSGYTFRPYWIEWVRQMPGKGLEWMGDIIPGTGYTNYSPSFQGHVTISADKSISTAYLQWSSLKASDTAMYYCARSGYYGNSGFAYWGQGTLVTVSS VL: DIVMTQTPLSLPVTPGEPASISCKSSQSLLSSGNQKNYLTWYLQKPGQSPQLLIYWASTRESGVPDRFSGSGSGTDFTLKISRVEAEDVGVYYCQNDYTYPLTFGQGTKLEIK | 0.41 | 5.6e-05 | 134000 | 154
4 | M1585 (antibody, V domains shown, complete MAb; FR4 is its own entry; also called H139/L3) VH: EVQLVQSGAEVKKPGESLRISCKGSGYTFSPFWIEWVRQMPGKGLEWMGDIIPGTGYTNYSPSFQGHVTISADKSISTAYLQWSSLKASDTAMYYCARSGYYGNSGFAYWGQGTLVTVSS VL: DIVMTQTPLSLPVTPGEPASISCKSSQSLLSSGNQKNYLTWYLQKPGQSPQLLIYWASTRESGVPDRFSGSGSGTDFTLKISRVEAEDVGVYYCQNDYTYPLTFGQGTKLEIK | 0.49 | 9e-05 | 185000 | 205
5 | M1590 (antibody, V domains shown, complete MAb; FR4 is its own entry; also called H117/L3) VH: EVQLVQSGAEVKKPGESLRISCKGSGYTFLPYWIEWVRQMPGKGLEWMGDIIPGTGFTNYSPSFQGHVTISADKSISTAYLQWSSLKASDTAMYYCARSGYYGNSGFAYWGQGTLVTVSS VL: DIVMTQTPLSLPVTPGEPASISCKSSQSLLSSGNQKNYLTWYLQKPGQSPQLLIYWASTRESGVPDRFSGSGSGTDFTLKISRVEAEDVGVYYCQNDYTYPLTFGQGTKLEIK | 0.69 | 0.000109 | 159000 | 180
6 | M1592 (antibody, V domains shown, complete MAb; FR4 is its own entry; also called H165/L3) VH: EVQLVQSGAEVKKPGESLRISCKGSGYTFSPHWIEWVRQMPGKGLEWMGDILPGSGYTIYSPSFQGHVTISADKSISTAYLQWSSLKASDTAMYYCARSGYYGNSGFAYWGQGTLVTVSS VL: DIVMTQTPLSLPVTPGEPASISCKSSQSLLSSGNQKNYLTWYLQKPGQSPQLLIYWASTRESGVPDRFSGSGSGTDFTLKISRVEAEDVGVYYCQNDYTYPLTFGQGTKLEIK | 0.4 | 7.7e-05 | 191000 | 163
7 | M1587 (antibody, V domains shown) VH: EVQLVQSGAEVKKPGESLRISCKGSGYTFIPYWIEWVRQMPGKGLEWMGDILPGSGFTTYSPSFQGHVTISADKSISTAYLQWSSLKASDTAMYYCARSGYYGNSGFAYWGQGTLVTVSS VL: DIVMTQTPLSLPVTPGEPASISCKSSQSLLSSGNQKNYLTWYLQKPGQSPQLLIYWASTRESGVPDRFSGSGSGTDFTLKISRVEAEDVGVYYCQNDYTYPLTFGQGTKLEIK | – | – | – | 202
8 | M1589 (antibody, V domains shown, complete MAb; FR4 is its own entry; also called H187/L3) VH: EVQLVQSGAEVKKPGESLRISCKGSGYTFGPHWIEWVRQMPGKGLEWMGDILPGTGYTNYSPSFQGHVTISADKSISTAYLQWSSLKASDTAMYYCARSGYYGNSGFAYWGQGTLVTVSS VL: DIVMTQTPLSLPVTPGEPASISCKSSQSLLSSGNQKNYLTWYLQKPGQSPQLLIYWASTRESGVPDRFSGSGSGTDFTLKISRVEAEDVGVYYCQNDYTYPLTFGQGTKLEIK | 0.4 | 7e-05 | 174000 | 202
9 | M1588 (antibody, V domains shown, complete MAb; FR4 is its own entry; also called H179/L3) VH: EVQLVQSGAEVKKPGESLRISCKGSGYTFGPFWIEWVRQMPGKGLEWMGDILPGSGYTNYSPSFQGHVTISADKSISTAYLQWSSLKASDTAMYYCARSGYYGNSGFAYWGQGTLVTVSS VL: DIVMTQTPLSLPVTPGEPASISCKSSQSLLSSGNQKNYLTWYLQKPGQSPQLLIYWASTRESGVPDRFSGSGSGTDFTLKISRVEAEDVGVYYCQNDYTYPLTFGQGTKLEIK | 0.35 | 6e-05 | 173000 | 207

Now from value to binder:

Row | Kd [1] [nM] | koff [1] [s⁻¹] | kon [1] [M⁻¹ s⁻¹] | T½ Max (seconds), coagulation of human plasma [2] [s] | Binder
10 | 0.19 | – | – | – | M1651 (antibody, V domains shown, complete MAb; FR4 is its own entry; also called H171/L162) VH: EVQLVQSGAEVKKPGESLRISCKGSGYTFAPYWIEWVRQMPGKGLEWMGDILPGTGFTTYSPSFQGHVTISADKSISTAYLQWSSLKASDTAMYYCARSGYYGNSGFAYWGQGTLVTVSS VL: DIVMTQTPLSLPVTPGEPASISCKSSQSLLYVYGQKNYLTWYLQKPGQSPQLLIYWASTRESGVPDRFSGSGSGTDFTLKISRVEAEDVGVYYCQNDFSWPLTFGQGTKLEIK
11 | 0.33 | 6.3e-05 | 192000 | 155 | M1598 (antibody, V domains shown, complete MAb; FR4 is its own entry; also called H137/L3) VH: EVQLVQSGAEVKKPGESLRISCKGSGYTFTPYWIEWVRQMPGKGLEWMGDILPGTGYTVYSPSFQGHVTISADKSISTAYLQWSSLKASDTAMYYCARSGYYGNSGFAYWGQGTLVTVSS VL: DIVMTQTPLSLPVTPGEPASISCKSSQSLLSSGNQKNYLTWYLQKPGQSPQLLIYWASTRESGVPDRFSGSGSGTDFTLKISRVEAEDVGVYYCQNDYTYPLTFGQGTKLEIK
12 | 0.35 | 4.3e-05 | 124000 | 165 | M1594 (antibody, V domains shown, complete MAb; FR4 is its own entry; also called H158/L3) VH: EVQLVQSGAEVKKPGESLRISCKGSGYTFPPYWIEWVRQMPGKGLEWMGDILPGTGYTVYSPSFQGHVTISADKSISTAYLQWSSLKASDTAMYYCARSGYYGNSGFAYWGQGTLVTVSS VL: DIVMTQTPLSLPVTPGEPASISCKSSQSLLSSGNQKNYLTWYLQKPGQSPQLLIYWASTRESGVPDRFSGSGSGTDFTLKISRVEAEDVGVYYCQNDYTYPLTFGQGTKLEIK
13 | 0.8 | 6.6e-05 | 83400 | 157 | M1597 (antibody, V domains shown, complete MAb; FR4 is its own entry; also called H134/L3) VH: EVQLVQSGAEVKKPGESLRISCKGSGYTFSSYWIEWVRQMPGKGLEWMGDILPGTGATHYSPSFQGHVTISADKSISTAYLQWSSLKASDTAMYYCARSGYYGNSGFAYWGQGTLVTVSS VL: DIVMTQTPLSLPVTPGEPASISCKSSQSLLSSGNQKNYLTWYLQKPGQSPQLLIYWASTRESGVPDRFSGSGSGTDFTLKISRVEAEDVGVYYCQNDYTYPLTFGQGTKLEIK
14 | 0.11 | – | – | – | M1652 (antibody, V domains shown, complete MAb; FR4 is its own entry; also called H171/L225) VH: EVQLVQSGAEVKKPGESLRISCKGSGYTFAPYWIEWVRQMPGKGLEWMGDILPGTGFTTYSPSFQGHVTISADKSISTAYLQWSSLKASDTAMYYCARSGYYGNSGFAYWGQGTLVTVSS VL: DIVMTQTPLSLPVTPGEPASISCKSSQSLLFRPTQKNYLTWYLQKPGQSPQLLIYWASTRESGVPDRFSGSGSGTDFTLKISRVEAEDVGVYYCQNDDSYPLTFGQGTKLEIK
15 | 0.17 | – | – | – | M1649 (antibody, V domains shown, complete MAb; FR4 is its own entry; also called H171/L335) VH: EVQLVQSGAEVKKPGESLRISCKGSGYTFAPYWIEWVRQMPGKGLEWMGDILPGTGFTTYSPSFQGHVTISADKSISTAYLQWSSLKASDTAMYYCARSGYYGNSGFAYWGQGTLVTVSS VL: DIVMTQTPLSLPVTPGEPASISCKSSQSLLFSANQRNYLTWYLQKPGQSPQLLIYWASTRDSGVPDRFSGSGSGTDFTLKISRVEAEDVGVYYCQNDDTYPLTFGQGTKLEIK
16 | 0.39 | 6.8e-05 | 176000 | 163 | M1595 (antibody, V domains shown, complete MAb; FR4 is its own entry; also called H160/L3) VH: EVQLVQSGAEVKKPGESLRISCKGSGYTFYPYWIEWVRQMPGKGLEWMGDILPGTGFTNYSPSFQGHVTISADKSISTAYLQWSSLKASDTAMYYCARSGYYGNSGFAYWGQGTLVTVSS VL: DIVMTQTPLSLPVTPGEPASISCKSSQSLLSSGNQKNYLTWYLQKPGQSPQLLIYWASTRESGVPDRFSGSGSGTDFTLKISRVEAEDVGVYYCQNDYTYPLTFGQGTKLEIK
17 | 0.33 | 4.3e-05 | 131000 | 163 | M1596 (antibody, V domains shown, complete MAb; FR4 is its own entry; also called H185/L3) VH: EVQLVQSGAEVKKPGESLRISCKGSGYTFTPYWIEWVRQMPGKGLEWMGDILPGSGHTTYSPSFQGHVTISADKSISTAYLQWSSLKASDTAMYYCARSGYYGNSGFAYWGQGTLVTVSS VL: DIVMTQTPLSLPVTPGEPASISCKSSQSLLSSGNQKNYLTWYLQKPGQSPQLLIYWASTRESGVPDRFSGSGSGTDFTLKISRVEAEDVGVYYCQNDYTYPLTFGQGTKLEIK
18 | 0.16 | – | – | – | M1653 (antibody, V domains shown, complete MAb; FR4 is its own entry; also called H171/L283) VH: EVQLVQSGAEVKKPGESLRISCKGSGYTFAPYWIEWVRQMPGKGLEWMGDILPGTGFTTYSPSFQGHVTISADKSISTAYLQWSSLKASDTAMYYCARSGYYGNSGFAYWGQGTLVTVSS VL: DIVMTQTPLSLPVTPGEPASISCKSSQSLLYTSNQKNYLTWYLQKPGQSPQLLIYWASTRESGVPDRFSGSGSGTDFTLKISRVEAEDVGVYYCQNDDYWPLTFGQGTKLEIK
19 | 0.19 | – | – | – | M1646 (antibody, V domains shown, complete MAb; FR4 is its own entry; also called H171/L138) VH: EVQLVQSGAEVKKPGESLRISCKGSGYTFAPYWIEWVRQMPGKGLEWMGDILPGTGFTTYSPSFQGHVTISADKSISTAYLQWSSLKASDTAMYYCARSGYYGNSGFAYWGQGTLVTVSS VL: DIVMTQTPLSLPVTPGEPASISCKSSQSLLWFVNQKNYLTWYLQKPGQSPQLLIYHASTRESGVPDRFSGSGSGTDFTLKISRVEAEDVGVYYCQNDDSYPLTFGQGTKLEIK
